Assay results published in the supplement of paper PMC11136658.

Tested on: peptide library, one residue held at a place counted from the Y acceptor
Test: relative phosphorylation of the sub-library (ratio to the mean residue at this position); higher = residue favoured
Method in brief: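 Purified recombinant kinases were given 50 μM ATP with γ-32P-ATP and biotinylated Tyr-centred peptide library mixtures for 90 min in 384-well plates. Peptides bound to streptavidin membranes were rinsed and quantified by phosphorimaging, and intensities were normalized per position by the sum of the 18 randomized residues (16 with the Ser/Thr-free library) and multiplied by that number. The reported values are phosphorylation relative to the mean randomized residue.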

Chain of PTK2, construct: Full length, human (Q05397 whole entry, looked up): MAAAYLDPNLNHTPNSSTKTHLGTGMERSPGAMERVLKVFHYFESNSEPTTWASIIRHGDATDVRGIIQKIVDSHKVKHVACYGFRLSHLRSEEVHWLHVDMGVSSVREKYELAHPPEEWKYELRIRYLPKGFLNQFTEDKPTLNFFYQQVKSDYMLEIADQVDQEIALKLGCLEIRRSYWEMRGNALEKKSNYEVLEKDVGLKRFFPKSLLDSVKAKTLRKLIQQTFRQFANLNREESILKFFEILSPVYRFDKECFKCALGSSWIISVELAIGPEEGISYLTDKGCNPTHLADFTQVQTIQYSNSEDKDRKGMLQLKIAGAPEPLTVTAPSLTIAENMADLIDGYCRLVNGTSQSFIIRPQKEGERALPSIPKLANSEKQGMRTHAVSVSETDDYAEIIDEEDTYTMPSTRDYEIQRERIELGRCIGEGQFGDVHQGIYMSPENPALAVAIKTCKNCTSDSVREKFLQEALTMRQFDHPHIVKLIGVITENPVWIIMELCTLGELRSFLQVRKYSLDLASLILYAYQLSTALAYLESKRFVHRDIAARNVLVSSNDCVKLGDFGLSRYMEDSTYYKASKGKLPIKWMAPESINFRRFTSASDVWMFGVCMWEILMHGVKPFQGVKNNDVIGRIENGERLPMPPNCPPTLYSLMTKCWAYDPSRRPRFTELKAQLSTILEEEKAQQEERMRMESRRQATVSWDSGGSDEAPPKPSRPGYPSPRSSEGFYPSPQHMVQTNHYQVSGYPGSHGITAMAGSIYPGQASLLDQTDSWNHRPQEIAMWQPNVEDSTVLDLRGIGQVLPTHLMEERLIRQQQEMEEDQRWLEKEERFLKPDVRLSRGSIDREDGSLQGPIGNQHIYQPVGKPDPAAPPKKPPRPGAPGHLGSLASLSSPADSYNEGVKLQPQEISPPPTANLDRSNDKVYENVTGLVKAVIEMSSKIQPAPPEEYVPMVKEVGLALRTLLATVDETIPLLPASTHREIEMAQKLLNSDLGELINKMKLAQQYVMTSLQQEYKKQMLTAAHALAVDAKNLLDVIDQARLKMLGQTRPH
Chain of PDHK1, construct: Full length, human (Q15118 whole entry, looked up): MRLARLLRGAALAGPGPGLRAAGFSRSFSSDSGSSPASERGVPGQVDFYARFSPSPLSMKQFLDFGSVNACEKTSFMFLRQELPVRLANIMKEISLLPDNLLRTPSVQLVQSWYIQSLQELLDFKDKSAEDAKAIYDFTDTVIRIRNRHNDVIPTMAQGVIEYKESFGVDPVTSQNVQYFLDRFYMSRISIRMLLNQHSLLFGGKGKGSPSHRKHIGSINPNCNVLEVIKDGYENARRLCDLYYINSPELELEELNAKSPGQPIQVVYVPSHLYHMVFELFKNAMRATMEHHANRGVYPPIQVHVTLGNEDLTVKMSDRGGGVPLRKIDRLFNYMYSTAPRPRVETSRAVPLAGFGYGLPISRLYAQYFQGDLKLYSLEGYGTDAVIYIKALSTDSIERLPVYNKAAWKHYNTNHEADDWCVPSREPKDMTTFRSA

PDHK1, construct: Full length, human (from UniProt Q15118)
relative phosphorylation
Details | at +1 | at +2 | at +3 | at +4 | at +5 | at -1 | at -2 | at -3 | at -4 | at -5
A fixed | 0.893 | 0.682 | 0.8 | 0.868 | 0.717 | 0.76 | 1.54 | 0.847 | 0.895 | 0.845
D fixed | 1.27 | 1.58 | 1.3 | 1.3 | 1.52 | 1.58 | 1.19 | 1.2 | 1.32 | 1.24
E fixed | 1.12 | 1.17 | 1.41 | 1.16 | 1.27 | 1.96 | 1.24 | 1.06 | 1.26 | 1.34
F fixed | 0.897 | 1.29 | 0.991 | 0.899 | 0.97 | 0.627 | 0.764 | 0.933 | 1.06 | 1.01
G fixed | 1.04 | 0.92 | 1.02 | 1.16 | 1.1 | 0.971 | 1.17 | 1.03 | 1.06 | 0.973
H fixed | 1.2 | 1.02 | 1.03 | 1.17 | 1.08 | 0.937 | 0.903 | 1.01 | 1 | 1.14
I fixed | 0.779 | 0.704 | 0.862 | 0.895 | 0.845 | 0.938 | 0.71 | 0.72 | 0.755 | 0.844
K fixed | 0.785 | 0.938 | 0.809 | 0.891 | 0.784 | 0.819 | 0.827 | 0.912 | 0.865 | 0.974
L fixed | 0.844 | 0.863 | 0.78 | 0.907 | 0.838 | 0.888 | 0.72 | 0.93 | 0.881 | 0.906
M fixed | 1.18 | 0.882 | 1.03 | 0.911 | 0.873 | 0.794 | 0.826 | 0.843 | 0.914 | 0.837
N fixed | 1.1 | 1.02 | 1.01 | 0.982 | 1.04 | 1.03 | 1.01 | 1.01 | 0.997 | 1.03
P fixed | 0.925 | 1.1 | 0.981 | 1.16 | 0.898 | 0.974 | 1.73 | 1.06 | 0.91 | 0.945
Q fixed | 0.986 | 0.997 | 1.02 | 0.986 | 0.992 | 0.983 | 0.863 | 1.19 | 1.18 | 0.977
R fixed | 0.822 | 0.851 | 0.899 | 0.819 | 0.863 | 0.744 | 0.818 | 0.976 | 0.891 | 0.935
V fixed | 0.739 | 0.707 | 0.766 | 0.718 | 0.747 | 1.03 | 0.758 | 0.802 | 0.759 | 0.702
W fixed | 1.41 | 1.27 | 1.3 | 1.18 | 1.47 | 0.96 | 0.934 | 1.48 | 1.26 | 1.3
pThr fixed | 1.42 | 1.51 | 1.34 | 1.12 | 1.01 | 1.72 | 1.35 | 1.53 | 1.52 | 1.45
pTyr fixed | 1.23 | 1.36 | 1.41 | 1.14 | 1.31 | 1.71 | 1.63 | 1.64 | 1.36 | 1.47

PTK2, construct: Full length, human (from UniProt Q05397)
relative phosphorylation
Details | at +1 | at +2 | at +3 | at +4 | at +5 | at -1 | at -2 | at -3 | at -4 | at -5
A fixed | 1.98 | 0.732 | 0.861 | 0.842 | 1.02 | 0.632 | 1.05 | 0.673 | 0.936 | 0.931
D fixed | 1.73 | 1.7 | 0.677 | 0.971 | 1.21 | 5.68 | 1.57 | 1.78 | 1.51 | 1.39
E fixed | 1.85 | 2.34 | 0.705 | 1.19 | 1.23 | 1.38 | 1.77 | 2.18 | 1.61 | 1.37
F fixed | 0.794 | 1.18 | 1.29 | 0.961 | 0.944 | 0.654 | 0.858 | 1.06 | 1.21 | 1.02
G fixed | 1.09 | 0.625 | 0.731 | 1.14 | 1.21 | 0.575 | 1.03 | 0.851 | 1.08 | 1.1
H fixed | 0.724 | 0.825 | 0.752 | 1.17 | 0.86 | 0.57 | 0.801 | 1.42 | 0.891 | 0.935
I fixed | 0.99 | 1.13 | 2.19 | 0.964 | 0.811 | 1.17 | 0.839 | 0.757 | 0.968 | 1.11
K fixed | 0.526 | 0.574 | 0.561 | 0.743 | 0.656 | 0.508 | 0.688 | 0.702 | 0.708 | 0.806
L fixed | 0.66 | 0.909 | 1.58 | 0.792 | 0.933 | 0.784 | 0.814 | 0.801 | 1.08 | 1.04
M fixed | 0.833 | 0.912 | 1.03 | 1.04 | 0.9 | 0.637 | 0.76 | 1.16 | 0.859 | 1.04
N fixed | 0.699 | 1.04 | 0.613 | 0.759 | 0.852 | 0.882 | 1.42 | 1.11 | 0.917 | 0.976
P fixed | 0.506 | 0.653 | 1.5 | 1.07 | 1.63 | 0.553 | 1.25 | 0.665 | 0.895 | 0.934
Q fixed | 0.914 | 0.677 | 0.631 | 0.824 | 0.841 | 0.578 | 0.946 | 0.85 | 1 | 0.909
R fixed | 0.538 | 0.612 | 0.59 | 0.758 | 0.678 | 0.512 | 0.689 | 0.78 | 0.725 | 0.868
S fixed | 1.1 | 0.804 | 0.713 | 0.849 | 1.07 | 0.577 | 1.02 | 0.742 | 0.785 | 0.802
T fixed | 0.879 | 0.815 | 0.795 | 0.815 | 1.21 | 0.76 | 0.765 | 0.702 | 0.724 | 0.808
V fixed | 1.27 | 0.965 | 1.61 | 0.933 | 0.868 | 0.964 | 0.882 | 0.719 | 0.831 | 0.884
W fixed | 0.911 | 1.52 | 1.18 | 2.19 | 1.07 | 0.579 | 0.833 | 1.05 | 1.27 | 1.07
pThr fixed | 5.07 | 4.12 | 0.915 | 1.1 | 1.89 | 7.51 | 2.09 | 1.88 | 1.74 | 1.39
pTyr fixed | 3.81 | 12.2 | 1.18 | 1.35 | 1.58 | 1.35 | 1.33 | 1.76 | 2.01 | 1.55
